From patent US20150258192A1, “COMPOSITIONS AND METHODS FOR PREVENTING OR TREATING CHRONIC LUNG ALLOGRAFT DYSFUNCTION (CLAD) AND IDIOPATHIC PULMONARY FIBROSIS (IPF)” (priority 2014, published 2015)
No end group written: not given here.

Columns and labels:
Test in all cases: Kinase Profiling Assay
Type in all cases: biochemical
Conditions in all cases: peptide 100 μM
[1] = target: CDK9/cyclin T1(h) (Homo sapiens, UniProt P50750)
Summary of the method: (§1)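 Radiometric filter-binding format: cationic substrate takes up labeled phosphate from ATP unless the inhibitor peptide blocks the kinase. Substrate bound to an anionic filter, scintillation-counted, normalized to 100% activity control. Duplicates; part of a 266-kinase selectivity panel for MK2 peptides.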

[2] = target: T1, EphA1(h) (Homo sapiens, UniProt P21709)
T1 sequence (P21709 26-976): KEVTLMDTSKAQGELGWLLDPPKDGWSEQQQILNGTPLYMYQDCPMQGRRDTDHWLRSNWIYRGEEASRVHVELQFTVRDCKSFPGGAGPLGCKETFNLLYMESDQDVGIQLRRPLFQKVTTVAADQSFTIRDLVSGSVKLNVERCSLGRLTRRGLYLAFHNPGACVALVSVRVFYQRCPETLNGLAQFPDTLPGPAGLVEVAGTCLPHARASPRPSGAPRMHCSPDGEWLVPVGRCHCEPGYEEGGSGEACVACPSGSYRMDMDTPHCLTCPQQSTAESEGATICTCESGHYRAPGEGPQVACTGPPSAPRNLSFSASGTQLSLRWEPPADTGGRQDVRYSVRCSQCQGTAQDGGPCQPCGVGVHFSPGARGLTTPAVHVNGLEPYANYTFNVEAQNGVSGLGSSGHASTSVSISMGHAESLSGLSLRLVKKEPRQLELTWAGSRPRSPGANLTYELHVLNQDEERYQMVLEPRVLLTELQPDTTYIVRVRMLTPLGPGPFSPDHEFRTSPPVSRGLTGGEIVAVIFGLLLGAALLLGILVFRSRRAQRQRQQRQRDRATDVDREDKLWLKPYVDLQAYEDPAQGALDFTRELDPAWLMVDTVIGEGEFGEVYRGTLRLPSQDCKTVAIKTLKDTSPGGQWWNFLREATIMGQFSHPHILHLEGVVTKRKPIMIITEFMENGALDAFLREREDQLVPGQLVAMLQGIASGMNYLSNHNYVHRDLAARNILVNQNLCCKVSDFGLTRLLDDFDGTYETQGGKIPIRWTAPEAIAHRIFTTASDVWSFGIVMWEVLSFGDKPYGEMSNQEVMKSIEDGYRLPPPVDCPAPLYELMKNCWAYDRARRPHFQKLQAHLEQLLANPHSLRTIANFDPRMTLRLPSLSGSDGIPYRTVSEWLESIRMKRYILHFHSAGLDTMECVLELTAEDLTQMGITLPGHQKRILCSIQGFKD
Summary of the method: as §1

[3] = target: T2, IKKα(h) (Homo sapiens, UniProt O15111)
T2 construct: purchased Millipore
T2 sequence (O15111 1-745): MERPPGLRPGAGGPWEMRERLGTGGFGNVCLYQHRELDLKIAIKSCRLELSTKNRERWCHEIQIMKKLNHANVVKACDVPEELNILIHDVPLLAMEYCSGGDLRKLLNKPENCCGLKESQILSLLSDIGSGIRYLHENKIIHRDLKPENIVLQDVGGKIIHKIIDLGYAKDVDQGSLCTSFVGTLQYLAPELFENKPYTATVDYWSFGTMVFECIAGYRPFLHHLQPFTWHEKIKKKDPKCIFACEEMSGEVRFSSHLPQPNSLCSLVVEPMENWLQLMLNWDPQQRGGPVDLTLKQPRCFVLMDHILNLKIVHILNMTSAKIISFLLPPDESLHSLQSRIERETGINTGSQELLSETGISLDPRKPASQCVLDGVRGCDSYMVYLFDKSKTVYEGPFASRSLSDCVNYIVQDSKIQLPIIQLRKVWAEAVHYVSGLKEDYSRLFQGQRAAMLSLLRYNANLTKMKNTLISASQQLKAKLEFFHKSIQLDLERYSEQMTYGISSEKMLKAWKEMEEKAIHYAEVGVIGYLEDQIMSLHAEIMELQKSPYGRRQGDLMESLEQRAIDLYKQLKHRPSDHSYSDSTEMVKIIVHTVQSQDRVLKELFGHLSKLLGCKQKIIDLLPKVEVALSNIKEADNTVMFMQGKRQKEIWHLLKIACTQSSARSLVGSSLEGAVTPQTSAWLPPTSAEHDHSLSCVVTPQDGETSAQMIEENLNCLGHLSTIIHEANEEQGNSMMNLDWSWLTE
Summary of the method: as §1

[4] = target: PTK5(h) (Homo sapiens, UniProt P42685)
Chain of PTK5(h) (P42685 whole entry): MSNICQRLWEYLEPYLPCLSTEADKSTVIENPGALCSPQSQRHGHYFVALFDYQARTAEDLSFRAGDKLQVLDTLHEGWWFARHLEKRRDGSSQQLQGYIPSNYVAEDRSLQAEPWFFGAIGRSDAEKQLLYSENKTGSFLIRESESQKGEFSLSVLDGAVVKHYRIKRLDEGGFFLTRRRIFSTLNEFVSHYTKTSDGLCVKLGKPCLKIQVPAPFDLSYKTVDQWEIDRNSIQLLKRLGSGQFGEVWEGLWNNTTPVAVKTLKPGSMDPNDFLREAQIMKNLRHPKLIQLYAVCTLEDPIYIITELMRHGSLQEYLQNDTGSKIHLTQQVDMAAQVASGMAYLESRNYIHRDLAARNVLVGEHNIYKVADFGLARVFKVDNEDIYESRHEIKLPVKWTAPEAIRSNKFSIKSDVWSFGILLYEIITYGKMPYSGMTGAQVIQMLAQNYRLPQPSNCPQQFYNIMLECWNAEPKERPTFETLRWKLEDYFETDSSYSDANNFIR
Summary of the method: as §1

[5] = target: Ret(V804L)(h) (Homo sapiens, UniProt P07949, V804L)
Summary of the method: as §1

[6] = target: Ros(h) (Homo sapiens, UniProt P08922)
Chain of Ros(h) (P08922 28-2347): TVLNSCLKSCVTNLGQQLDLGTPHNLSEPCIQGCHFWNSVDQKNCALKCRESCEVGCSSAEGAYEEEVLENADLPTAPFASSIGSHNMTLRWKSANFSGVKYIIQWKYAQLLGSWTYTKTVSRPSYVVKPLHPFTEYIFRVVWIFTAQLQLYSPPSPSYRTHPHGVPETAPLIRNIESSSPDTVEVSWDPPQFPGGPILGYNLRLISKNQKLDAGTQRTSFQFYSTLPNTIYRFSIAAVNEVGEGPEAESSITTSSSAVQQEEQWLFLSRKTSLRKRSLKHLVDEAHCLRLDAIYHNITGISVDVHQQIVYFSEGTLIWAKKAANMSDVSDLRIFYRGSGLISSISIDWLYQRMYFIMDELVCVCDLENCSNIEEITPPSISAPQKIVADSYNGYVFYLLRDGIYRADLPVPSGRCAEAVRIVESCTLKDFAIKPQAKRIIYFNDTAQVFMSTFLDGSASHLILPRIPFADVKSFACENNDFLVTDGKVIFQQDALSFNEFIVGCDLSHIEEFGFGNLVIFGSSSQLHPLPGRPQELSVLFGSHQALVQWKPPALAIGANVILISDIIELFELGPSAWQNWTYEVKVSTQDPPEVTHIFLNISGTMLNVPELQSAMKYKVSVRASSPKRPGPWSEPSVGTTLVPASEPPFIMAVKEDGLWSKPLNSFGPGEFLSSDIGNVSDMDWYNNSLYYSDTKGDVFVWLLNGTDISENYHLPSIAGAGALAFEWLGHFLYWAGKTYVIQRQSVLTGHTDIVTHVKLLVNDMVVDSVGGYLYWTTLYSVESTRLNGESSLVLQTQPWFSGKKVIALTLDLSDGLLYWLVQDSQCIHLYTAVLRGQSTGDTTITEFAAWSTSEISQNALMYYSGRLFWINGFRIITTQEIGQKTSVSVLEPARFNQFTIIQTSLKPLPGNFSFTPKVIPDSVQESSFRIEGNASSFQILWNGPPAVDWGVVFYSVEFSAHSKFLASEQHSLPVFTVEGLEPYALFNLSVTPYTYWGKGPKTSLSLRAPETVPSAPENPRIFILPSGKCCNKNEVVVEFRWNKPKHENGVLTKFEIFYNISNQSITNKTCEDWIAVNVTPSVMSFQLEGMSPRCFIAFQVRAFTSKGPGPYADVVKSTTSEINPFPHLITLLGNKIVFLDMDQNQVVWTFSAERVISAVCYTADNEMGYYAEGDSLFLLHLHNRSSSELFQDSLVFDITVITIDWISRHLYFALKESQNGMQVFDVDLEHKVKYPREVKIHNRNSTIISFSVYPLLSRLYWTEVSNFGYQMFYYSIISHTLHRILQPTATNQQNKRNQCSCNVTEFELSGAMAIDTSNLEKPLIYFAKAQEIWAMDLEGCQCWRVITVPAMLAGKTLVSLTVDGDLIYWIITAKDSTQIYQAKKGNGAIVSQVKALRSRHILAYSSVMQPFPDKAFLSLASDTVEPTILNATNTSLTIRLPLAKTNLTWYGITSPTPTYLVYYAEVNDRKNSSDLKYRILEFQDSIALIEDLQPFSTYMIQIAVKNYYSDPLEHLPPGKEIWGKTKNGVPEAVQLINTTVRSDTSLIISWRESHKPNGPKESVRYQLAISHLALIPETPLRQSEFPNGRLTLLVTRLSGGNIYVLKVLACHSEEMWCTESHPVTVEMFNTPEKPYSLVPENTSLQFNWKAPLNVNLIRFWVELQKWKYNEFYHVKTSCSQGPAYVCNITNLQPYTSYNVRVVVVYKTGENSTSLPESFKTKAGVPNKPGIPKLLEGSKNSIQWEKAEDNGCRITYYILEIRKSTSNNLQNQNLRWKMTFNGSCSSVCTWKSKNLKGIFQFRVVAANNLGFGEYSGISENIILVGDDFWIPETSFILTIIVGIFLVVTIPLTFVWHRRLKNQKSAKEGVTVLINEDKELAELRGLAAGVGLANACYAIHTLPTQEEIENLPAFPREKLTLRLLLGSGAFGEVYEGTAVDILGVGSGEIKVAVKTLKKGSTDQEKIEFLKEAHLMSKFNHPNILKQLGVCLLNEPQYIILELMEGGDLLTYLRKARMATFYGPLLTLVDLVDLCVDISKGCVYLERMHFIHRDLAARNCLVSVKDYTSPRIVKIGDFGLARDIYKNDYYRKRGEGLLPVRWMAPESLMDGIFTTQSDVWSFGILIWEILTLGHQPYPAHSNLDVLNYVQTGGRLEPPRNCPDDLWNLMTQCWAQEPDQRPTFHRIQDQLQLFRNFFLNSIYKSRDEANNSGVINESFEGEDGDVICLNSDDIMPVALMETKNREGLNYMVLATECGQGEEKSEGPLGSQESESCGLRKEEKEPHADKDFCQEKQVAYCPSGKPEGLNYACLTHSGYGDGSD
Summary of the method: as §1

[7] = target: T3, SAPK2b(h) (Homo sapiens, UniProt Q15759)
T3 construct: purchased Millipore
T3 sequence (Q15759 whole entry): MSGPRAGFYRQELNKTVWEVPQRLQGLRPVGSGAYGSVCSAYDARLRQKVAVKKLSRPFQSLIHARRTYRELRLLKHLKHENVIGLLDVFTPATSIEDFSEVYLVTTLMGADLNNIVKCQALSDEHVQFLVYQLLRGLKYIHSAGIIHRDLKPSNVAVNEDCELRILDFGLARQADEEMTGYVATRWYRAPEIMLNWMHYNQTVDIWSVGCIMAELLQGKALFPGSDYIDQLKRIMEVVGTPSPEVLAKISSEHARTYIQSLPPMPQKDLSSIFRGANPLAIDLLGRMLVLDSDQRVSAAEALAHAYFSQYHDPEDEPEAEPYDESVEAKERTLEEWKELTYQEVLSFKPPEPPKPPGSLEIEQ
Summary of the method: as §1

Chain of CDK9/cyclin T1(h) (P50750 whole entry): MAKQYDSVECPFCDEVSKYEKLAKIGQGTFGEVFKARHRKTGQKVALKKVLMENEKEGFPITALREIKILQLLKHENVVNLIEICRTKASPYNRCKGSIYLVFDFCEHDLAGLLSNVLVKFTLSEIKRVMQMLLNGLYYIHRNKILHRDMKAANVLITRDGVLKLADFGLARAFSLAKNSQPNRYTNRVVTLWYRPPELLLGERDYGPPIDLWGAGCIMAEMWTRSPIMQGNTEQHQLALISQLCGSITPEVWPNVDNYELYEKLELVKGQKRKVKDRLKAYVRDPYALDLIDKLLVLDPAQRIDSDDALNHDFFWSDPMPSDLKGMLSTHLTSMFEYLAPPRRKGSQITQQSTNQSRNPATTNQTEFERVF
Chain of CDK9/cyclin T1(h) (O60563 whole entry partner): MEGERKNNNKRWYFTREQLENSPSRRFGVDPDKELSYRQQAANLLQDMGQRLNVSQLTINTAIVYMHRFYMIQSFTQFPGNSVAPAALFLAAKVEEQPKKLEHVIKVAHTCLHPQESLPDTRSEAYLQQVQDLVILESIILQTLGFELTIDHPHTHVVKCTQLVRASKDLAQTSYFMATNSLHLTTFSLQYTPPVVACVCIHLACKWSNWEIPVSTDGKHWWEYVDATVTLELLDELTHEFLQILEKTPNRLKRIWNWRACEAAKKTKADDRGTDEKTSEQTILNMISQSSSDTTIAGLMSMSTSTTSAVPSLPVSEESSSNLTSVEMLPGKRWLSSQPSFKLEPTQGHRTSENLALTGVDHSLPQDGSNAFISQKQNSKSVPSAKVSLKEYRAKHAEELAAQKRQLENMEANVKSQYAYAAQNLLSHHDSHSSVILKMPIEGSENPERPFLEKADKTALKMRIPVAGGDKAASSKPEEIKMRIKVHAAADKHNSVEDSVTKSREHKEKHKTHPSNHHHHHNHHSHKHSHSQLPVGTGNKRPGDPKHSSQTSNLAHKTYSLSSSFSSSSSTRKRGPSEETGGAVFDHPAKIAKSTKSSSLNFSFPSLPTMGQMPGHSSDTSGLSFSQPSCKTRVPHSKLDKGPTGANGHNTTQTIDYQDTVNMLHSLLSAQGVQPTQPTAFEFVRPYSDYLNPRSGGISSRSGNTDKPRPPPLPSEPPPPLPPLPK

Row | Sequence | % activity [1] [%] | % activity [2] [%] | % activity [3] [%] | % activity [4] [%] | % activity [5] [%] | % activity [6] [%] | % activity [7] [%]
1 | KAFAKLAARLYRKALARQLGVAA [MMI-0400] | 235 | 61 | 87 | 129 | 73 | 99 | 82
2 | FAKLAARLYRKALARQLGVAA [MMI-0300] | 91 | 73 | 93 | 132 | 79 | 95 | 81
3 | YARAAARQARAKALARQLGVAA [MMI-0100] |  |  | 108 | 135 |  |  | 
4 | HRRIKAWLKKIKALARQLGVAA (Mammal) [MMI-0500] | 6 | 40 | 50 | 96 | 20 | 150 | 42
5 | YARAAARQARAKALNRQLGVA (Mammal) [MMI-0200] |  |  |  | 108 | 100 | 86 | 95
